B1: copper chaperone for SOD1 (hCCS), wild-type (natural protein, UniProt O14618 1-274, looked up)
chain: MASDSGNQGTLCTLEFAVQMTCQSCVDAVRKSLQGVAGVQDVEVHLEDQMVLVHTTLPSQEVQALLEGTGRQAVLKGMGSGQLQNLGAAVAILGGPGTVQGVVRFLQLTPERCLIEGTIDGLEPGLHGLHVHQYGDLTNNCNSCGNHFNPDGASHGGPQDSDRHRGDLGNVRADADGRAIFRMEDEQLKVWDVIGRSLIIDEGEDDLGRGGHPLSKITGNSGERLACGIIARSAGLFQNPKQICSCDGLTIWEERGRPIAGKGRKESAQPPAHL
notes: copper chaperone for SOD1 (hCCS), wild type; Desalted into ligand-free, nitrogen-purged buffer

What was measured:
[1] = target: the molecule itself; test: SEC; C57A/C146A SOD1 with or without ebselen (25 uM SOD1, 100 uM ebselen, 3 h, 20 C) and hCCS; complex formed with 250 pmol of both SOD1 and hCCS
[2] = target: B1; test: as above; settings: both partners purified

| binding result [2] | Binder | stoichiometry N [1] |
| --- | --- | --- |
|  | B1 | 2 |
| binds | artificial disulphide knockout SOD1 mutant C57A/C146A (enzyme, superoxide dismutase-1 (SOD1), C57A/C146A; also called ebselen-free SOD1; source: E. coli BL21 (DE3), purified (diethylaminoethyl cellulose); treated with DMSO) not shown |  |
